Two substances from article PMC4471001 can be followed below.

Assay [1] has as its target human importin α5 (human) (UniProt P52294). Put plainly: fluorescence polarisation; S2 Fig D; method not named for this panel, taken as the paper's fluorescence polarization assay; dark and blue light, binding light independent. For orientation: Polarisation of emitted light reports the rotation of a fluorescent probe.
Assay [2] has the same target. Put plainly: fluorescence polarisation; competition, dark (value read after 5 minutes in absence of light); 25 nM TAMRA peptide …, 50 mM Tris pH 7.5, 100 mM NaCl, 1 mM DTT, 25°C; Kd from IC50.
In assay [3] the target is human importin α7 (human) (UniProt O60684). Described as above.
In assay [4] the target is human importin α5 (human) (UniProt P52294). Put plainly: fluorescence polarisation; competition, under blue light (455 nm, 6 mW/cm^2; value read after 2 minutes of illumination); 25 nM TAMRA peptide …, 50 mM Tris pH 7.5, 100 mM NaCl, 1 mM DTT, 25°C; Kd from IC50.
Chain of human importin α5 (human) (P52294 whole entry): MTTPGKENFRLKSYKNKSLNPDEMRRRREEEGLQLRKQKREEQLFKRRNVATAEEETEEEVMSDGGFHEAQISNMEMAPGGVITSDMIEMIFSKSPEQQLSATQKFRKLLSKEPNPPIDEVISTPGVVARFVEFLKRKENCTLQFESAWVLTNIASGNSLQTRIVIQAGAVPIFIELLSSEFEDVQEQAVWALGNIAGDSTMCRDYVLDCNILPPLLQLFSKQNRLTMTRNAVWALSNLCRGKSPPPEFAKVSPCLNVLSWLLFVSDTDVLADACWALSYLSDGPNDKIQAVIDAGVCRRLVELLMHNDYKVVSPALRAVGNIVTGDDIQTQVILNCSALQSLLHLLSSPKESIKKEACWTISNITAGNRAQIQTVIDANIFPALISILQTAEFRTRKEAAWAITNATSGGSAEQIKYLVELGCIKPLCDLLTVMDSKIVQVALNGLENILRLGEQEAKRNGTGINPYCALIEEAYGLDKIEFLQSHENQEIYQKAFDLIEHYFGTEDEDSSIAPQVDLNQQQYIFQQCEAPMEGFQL
The target in assay [5] is human importin α7 (human) (UniProt O60684). Described as above.

In the case of “AsLOV2cMyc (from UniProt O49003 404-546)”, the Kd (usually the constant that tells how readily two partners part at equilibrium) in assay [1] was 0.001 µM.
Turning to “AsLOV2cNLS (from UniProt O49003 404-546) (designed binder)”, the equilibrium dissociation constant (Kd) worked out at 1.5 µM in assay [2], 2 µM in assay [3], 0.25 µM in assay [4] and 0.34 µM in assay [5].
